Laboratory results as given in paper PMC8867384 (Neuron, 2020).

T1: Torpedo nicotinic acetylcholine receptor δ subunit (Tetronarce californica (formerly …, UniProt P02718 22-522, glycosylated (site not given)))
T1 sequence (looked up): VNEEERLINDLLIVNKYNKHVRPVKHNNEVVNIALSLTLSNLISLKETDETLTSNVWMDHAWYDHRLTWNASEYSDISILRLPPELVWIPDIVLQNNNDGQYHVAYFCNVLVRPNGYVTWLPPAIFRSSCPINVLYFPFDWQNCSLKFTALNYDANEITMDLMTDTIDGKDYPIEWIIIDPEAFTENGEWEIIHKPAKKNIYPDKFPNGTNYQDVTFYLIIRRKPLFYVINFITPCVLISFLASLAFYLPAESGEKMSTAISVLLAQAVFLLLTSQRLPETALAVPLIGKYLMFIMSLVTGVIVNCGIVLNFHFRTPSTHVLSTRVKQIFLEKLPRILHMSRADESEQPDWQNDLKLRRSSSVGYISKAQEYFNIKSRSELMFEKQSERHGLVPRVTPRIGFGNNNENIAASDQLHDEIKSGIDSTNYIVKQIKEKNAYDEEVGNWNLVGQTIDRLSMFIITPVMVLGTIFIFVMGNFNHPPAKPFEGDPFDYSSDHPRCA

T2: Torpedo nicotinic acetylcholine receptor γ subunit (Tetronarce californica (formerly …, UniProt P02714 18-506))
T2 sequence (looked up): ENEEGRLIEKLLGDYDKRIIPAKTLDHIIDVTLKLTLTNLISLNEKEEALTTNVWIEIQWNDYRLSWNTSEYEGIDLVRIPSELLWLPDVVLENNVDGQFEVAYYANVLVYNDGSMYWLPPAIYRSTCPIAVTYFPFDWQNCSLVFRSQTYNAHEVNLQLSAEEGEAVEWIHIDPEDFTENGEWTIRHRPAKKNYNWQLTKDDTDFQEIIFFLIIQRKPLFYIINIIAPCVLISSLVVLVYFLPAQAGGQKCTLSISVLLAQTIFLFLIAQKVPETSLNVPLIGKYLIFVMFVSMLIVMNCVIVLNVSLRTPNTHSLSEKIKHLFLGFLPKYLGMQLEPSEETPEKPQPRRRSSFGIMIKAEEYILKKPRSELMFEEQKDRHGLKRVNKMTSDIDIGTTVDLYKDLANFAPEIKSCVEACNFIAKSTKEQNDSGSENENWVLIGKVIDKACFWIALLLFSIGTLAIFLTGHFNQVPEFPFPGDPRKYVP

B1: α-bungarotoxin (natural protein)
chain: IVCHTTATSPISAVTCPPGENLCYRKMWCDAFCSSRGKVVELGCAATCPSKKPYEEVTCCSTDKCNPHPKQRPG

Assays:
Assay in all cases: cryo-EM structure
[1] = target: native Torpedo nicotinic acetylcholine receptor (Tetronarce californica (formerly Torpedo californica)) (UniProt P02710)
[2] = target: T1, Torpedo nicotinic acetylcholine …
[3] = target: T2, Torpedo nicotinic acetylcholine …
[4] = target: Torpedo nicotinic acetylcholine receptor α subunit (Tetronarce californica (formerly …, UniProt P02710 25-461))
Chain of Torpedo nicotinic acetylcholine receptor α subunit (Tetronarce californica (P02710 25-461): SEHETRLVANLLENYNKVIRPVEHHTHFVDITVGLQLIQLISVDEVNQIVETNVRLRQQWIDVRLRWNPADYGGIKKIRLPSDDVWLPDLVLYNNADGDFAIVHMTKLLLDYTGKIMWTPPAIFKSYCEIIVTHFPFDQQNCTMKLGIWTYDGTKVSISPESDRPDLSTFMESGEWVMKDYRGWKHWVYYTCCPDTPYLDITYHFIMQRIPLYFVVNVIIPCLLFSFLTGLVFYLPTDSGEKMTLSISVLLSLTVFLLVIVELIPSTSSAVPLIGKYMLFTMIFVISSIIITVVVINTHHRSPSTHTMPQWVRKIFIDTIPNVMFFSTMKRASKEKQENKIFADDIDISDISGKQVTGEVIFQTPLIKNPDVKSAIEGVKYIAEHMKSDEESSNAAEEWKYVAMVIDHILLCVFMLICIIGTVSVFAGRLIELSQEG

Chain of native Torpedo nicotinic acetylcholine receptor (Tetronarce californica (formerly Torpedo californica)) (P02710 25-461, chain 1 of 2): as the sequence (P02710 25-461) above
Chain of native Torpedo nicotinic acetylcholine receptor (Tetronarce californica (formerly Torpedo californica)) (P02712 25-493, chain 2 of 2, further chain): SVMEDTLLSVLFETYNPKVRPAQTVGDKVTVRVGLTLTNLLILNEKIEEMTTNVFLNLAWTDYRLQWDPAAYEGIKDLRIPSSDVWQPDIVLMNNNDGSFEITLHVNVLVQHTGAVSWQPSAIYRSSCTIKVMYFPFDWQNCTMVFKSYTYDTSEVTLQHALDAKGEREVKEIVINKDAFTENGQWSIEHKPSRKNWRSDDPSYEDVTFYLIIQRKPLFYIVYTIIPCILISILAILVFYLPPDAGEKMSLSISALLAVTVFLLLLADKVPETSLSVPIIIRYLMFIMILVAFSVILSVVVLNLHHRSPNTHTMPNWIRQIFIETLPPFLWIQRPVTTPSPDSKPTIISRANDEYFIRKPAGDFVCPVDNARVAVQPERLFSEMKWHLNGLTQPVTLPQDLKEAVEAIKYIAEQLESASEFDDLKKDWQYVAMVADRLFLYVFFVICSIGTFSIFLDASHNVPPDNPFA

Row | Molecule | stoichiometry N [1] | binding result [2] | binding result [3] | binding result [4]
1 | α-bungarotoxin (from UniProt P60615 22-95) (natural protein) | 2 |  |  | 
2 | B1 |  | binds | binds | binds
